Experimental findings from the supplement of paper PMC10567573 are described below.

± gives the standard deviation.

The nature of this data set: protein stability index of a GFP-peptide fusion (GPS, HEK-293T) (PSI 1-6); higher = more stable. As to conditions: c terminus: a fixed tail appended.
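Also: 24-mer peptide tiles fused after GFP, lentivirally expressed, FACS-sorted into six equal bins by GFP/DsRed ratio, decoded by Illumina sequencing, PSI is the read-weighted mean bin number.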

For the sequence ALIETSYVKVLHHMVKISGGPRIS [MAGEA6], the protein stability index (treatment: DMSO) was determined as 2.93 ± 0.41 and the protein stability index (treatment: MLN4924 1 uM, 8 h) is 2.88 ± 0.51.

Turning to ALKHPWISHRSTVASCMHRQETVD [CAMK2A], the protein stability index is, setting by setting: (treatment: DMSO) 3.18 ± 0.13; (treatment: MLN4924 1 uM, 8 h) 3.35 ± 0.16.

The sequence ALLFTGIAVLGIVMLKRIHSLYRR [SCAMP3] gave a protein stability index (treatment: DMSO) of 2.2 ± 0.52 and a protein stability index (treatment: MLN4924 1 uM, 8 h) of 1.96 ± 0.25.

For ALQTLLTLIVVDASGLGLEITTQF [SLC19A2], the protein stability index reads like this: (treatment: DMSO) 3 ± 0.39; (treatment: MLN4924 1 uM, 8 h) 3.31 ± 0.56.

For the sequence ALSFTLLGSAPLDQEPLLSIDLGT [NEK8], the protein stability index (treatment: DMSO) was found to be 2.29 ± 0.36 and the protein stability index (treatment: MLN4924 1 uM, 8 h) worked out at 2.44 ± 0.23.

In the case of AMFAADPKKPIGGNIIAHASTTRL [RAD51], the protein stability index was 3.32 ± 0.087 (treatment: DMSO) and 3.39 ± 0.12 (treatment: MLN4924 1 uM, 8 h).

As to AMFLGDAAAHWYGGAEMRTQHWPI [MYORG], the protein stability index is 2.41 ± 0.81 (treatment: DMSO) and 2.17 ± 0.25 (treatment: MLN4924 1 uM, 8 h).

With AMFPETLDEGMQIPSTQFDAAHPT [CTNNB1], the protein stability index was found to be 4.5 ± 0.091 (treatment: DMSO) and 4.49 ± 0.28 (treatment: MLN4924 1 uM, 8 h).

As for ANFSLGSINQRLNKRERSKLKNLR [RNF180], the protein stability index was determined as 2.91 ± 0.35 (treatment: DMSO) and 3.28 ± 0.43 (treatment: MLN4924 1 uM, 8 h).

In the case of ANLAASGGYAIAVVLLQGAELLLA [TSPAN10], the protein stability index by setting is: (treatment: DMSO) 2.97 ± 0.54; (treatment: MLN4924 1 uM, 8 h) 3.05 ± 0.92.

For the sequence APANVAKIQLRLAGQKRKHSEGRV [LOXL2], the protein stability index is, setting by setting: (treatment: DMSO) 3.88 ± 0.13; (treatment: MLN4924 1 uM, 8 h) 4.53 ± 0.32.

Turning to APCRSAQASVSCALEALEPFWEVL [HDAC6], the protein stability index by setting is: (treatment: DMSO) 3.32 ± 0.59; (treatment: MLN4924 1 uM, 8 h) 2.69 ± 0.82.

As to APGFGEDVPNRLVDNIDMIDGDGD [BEX5], the protein stability index is, setting by setting: (treatment: DMSO) 5.5 ± 0.23; (treatment: MLN4924 1 uM, 8 h) 5.59 ± 0.19.

In the case of APPLPGAESFPGSQVMGSGRGSLS [PLEKHN1], the protein stability index was 4.82 ± 0.28 (treatment: DMSO) and 4.61 ± 0.2 (treatment: MLN4924 1 uM, 8 h).

For APPRRLRSRKVSCPLTRSNGDLSR [FCHO1], the protein stability index (treatment: DMSO) stood at 4.16 ± 0.17 and the protein stability index (treatment: MLN4924 1 uM, 8 h) worked out at 4.34 ± 0.062.

Turning to APVANSYRGTLKRQPAFDTFDGSL [ETS2], the protein stability index runs as follows: (treatment: DMSO) 3.4 ± 0.097; (treatment: MLN4924 1 uM, 8 h) 3.42 ± 0.13.

For the sequence AQKALDLPSSGEGLAFFTFPNIAS [HMOX1], the protein stability index by setting is: (treatment: DMSO) 2.88 ± 0.2; (treatment: MLN4924 1 uM, 8 h) 2.96 ± 0.25.

In the case of ARLASPLPREEEIVFPEKLNGSVL [ADAMTS4], the protein stability index runs as follows: (treatment: DMSO) 4.01 ± 0.42; (treatment: MLN4924 1 uM, 8 h) 4.16 ± 0.15.

On to ARLQDFQELELVLMISENNFLFRN [ANKRD40], for which the protein stability index is, setting by setting: (treatment: DMSO) 2.97 ± 0.63; (treatment: MLN4924 1 uM, 8 h) 2.66 ± 0.58.

Consider ARQHALYIWEKSIGNLVKILHGTR [RBBP5], for which the protein stability index (treatment: DMSO) came out at 2.26 ± 0.36 and the protein stability index (treatment: MLN4924 1 uM, 8 h) came out at 2.5 ± 0.41.

Take ARRELQAEREALQARLRDVSRREG [ZBED3]: the protein stability index (treatment: DMSO) was 4.79 ± 0.15 and the protein stability index (treatment: MLN4924 1 uM, 8 h) is 4.8 ± 0.18.

As to ARYAQQKHRIRRVLIVDWDVHHGQ [HDAC6], the protein stability index is, setting by setting: (treatment: DMSO) 2.33 ± 0.19; (treatment: MLN4924 1 uM, 8 h) 2.31 ± 0.42.

In the case of ASVVLPARELQEALPEAPAPLLPH [BCL2L13], the protein stability index is 4.34 ± 0.17 (treatment: DMSO) and 4.35 ± 0.22 (treatment: MLN4924 1 uM, 8 h).

In the case of ATDMISIFEPPVRNSGIIGGKYLG [EFHC1], the protein stability index was found to be 2.92 ± 0.25 (treatment: DMSO) and 3.16 ± 0.21 (treatment: MLN4924 1 uM, 8 h).

AVINDIANLPVPTIAAIDGLALGG [AUH]: the protein stability index worked out at 2.79 ± 0.21 (treatment: DMSO) and 2.62 ± 0.23 (treatment: MLN4924 1 uM, 8 h).

AYGNRTECRNPQELESIRQDRDAL [FEM1B]: the protein stability index runs as follows: (treatment: DMSO) 4.71 ± 0.24; (treatment: MLN4924 1 uM, 8 h) 4.68 ± 0.16.

In the case of AYHDPMLKLSIMSEEELTHIFGDL [NET1], the protein stability index by setting is: (treatment: DMSO) 3.28 ± 0.24; (treatment: MLN4924 1 uM, 8 h) 3.5 ± 0.48.

Take CAERLQSEEQVSKNLFGPPLESAF [FCHO1]: the protein stability index is 3.36 ± 1.1 (treatment: DMSO) and 3.58 ± 0.52 (treatment: MLN4924 1 uM, 8 h).

Take CAINKVGVSFSTVENELMISYLMF [FAM98B]: the protein stability index came out at 2.63 ± 0.48 (treatment: DMSO) and 2.81 ± 0.41 (treatment: MLN4924 1 uM, 8 h).

In turn, CAKYTYPVCSALLDPVLQAPGTGP [FANCE] came in with a protein stability index (treatment: DMSO) of 2.65 ± 0.14 and a protein stability index (treatment: MLN4924 1 uM, 8 h) of 2.26 ± 0.17.

For CDLFDREIVVTISWAKSIPGFSSL [ESRRA], the protein stability index is, setting by setting: (treatment: DMSO) 3.28 ± 0.16; (treatment: MLN4924 1 uM, 8 h) 2.97 ± 0.4.

For CEGRRTRFRSCNTEDCPTGSALTF [ADAMTS4], the protein stability index (treatment: DMSO) was 3.42 ± 0.18 and the protein stability index (treatment: MLN4924 1 uM, 8 h) is 3.29 ± 0.092.

Regarding CEMEQQSQEYQILLDVKTRLEQEI [KRT16], the protein stability index was 4.1 ± 0.39 (treatment: DMSO) and 4.11 ± 0.37 (treatment: MLN4924 1 uM, 8 h).

Turning to CGINANDVKKLEEAGFHTVEAVAY [RAD51], the protein stability index is, setting by setting: (treatment: DMSO) 2.58 ± 0.25; (treatment: MLN4924 1 uM, 8 h) 2.47 ± 0.22.

In the case of CMFCNEEFLGNRSVILNHMAREHA [ZNF277], the protein stability index amounted to 3.62 ± 0.38 (treatment: DMSO) and 3.52 ± 0.46 (treatment: MLN4924 1 uM, 8 h).

Take CQECGKTFRVSSDLIKHQRIHTEE [ZNF75A]: the protein stability index is 5.26 ± 0.4 (treatment: DMSO) and 5.41 ± 0.31 (treatment: MLN4924 1 uM, 8 h).
